In the test the target is 80S-like ribosomes (yeast | yeast (endogenous in the yeast strain)) (UniProt Q07381). The experiment in a line: co-sedimentation.

The values below come from paper PMC7812869.

Values joined by “and” are separate entries in the source; they are usually repeats but may differ in a detail not shown here. Equal values may be shown once.

Chain of UniProt Q07381 (Q07381 whole entry, looked up): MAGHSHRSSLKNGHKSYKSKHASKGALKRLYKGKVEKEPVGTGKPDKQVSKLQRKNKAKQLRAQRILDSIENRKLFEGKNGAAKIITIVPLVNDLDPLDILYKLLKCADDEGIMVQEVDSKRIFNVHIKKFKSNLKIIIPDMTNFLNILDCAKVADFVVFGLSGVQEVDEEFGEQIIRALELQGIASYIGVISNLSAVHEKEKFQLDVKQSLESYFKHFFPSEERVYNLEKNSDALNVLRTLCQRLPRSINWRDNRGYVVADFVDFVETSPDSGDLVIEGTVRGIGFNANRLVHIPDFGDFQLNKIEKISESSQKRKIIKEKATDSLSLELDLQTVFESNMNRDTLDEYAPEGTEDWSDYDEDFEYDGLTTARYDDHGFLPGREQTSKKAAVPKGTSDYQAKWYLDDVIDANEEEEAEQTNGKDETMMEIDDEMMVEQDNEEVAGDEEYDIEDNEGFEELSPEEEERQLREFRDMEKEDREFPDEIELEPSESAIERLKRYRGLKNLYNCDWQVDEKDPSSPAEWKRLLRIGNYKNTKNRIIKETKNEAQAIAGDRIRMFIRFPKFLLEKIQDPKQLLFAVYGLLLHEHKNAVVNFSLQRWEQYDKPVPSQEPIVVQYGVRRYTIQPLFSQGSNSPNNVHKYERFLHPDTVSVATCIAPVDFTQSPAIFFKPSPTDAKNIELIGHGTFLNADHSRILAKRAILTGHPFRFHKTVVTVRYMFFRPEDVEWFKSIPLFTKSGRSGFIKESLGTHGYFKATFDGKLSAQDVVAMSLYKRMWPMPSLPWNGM

On to “Fap7+SUMO-Rps14 complex (from UniProt Q12055 1-197)”, for which the fold change of bound Fap7 against Fap7 alone was 2 fold and 3 fold.
